Assay results as given in paper PMC7917804.

Molecular target: poly(A)-binding protein (PABP), P11940
Test: co-immunoprecipitation with anti-FLAG antibody, Western blot quantified with ImageJ
Settings: chain shown with the change, HeLa cells, parent: est. 1.0, read off a plot

Sequence of poly(A)-binding protein (PABP), P11940 (P11940 whole entry): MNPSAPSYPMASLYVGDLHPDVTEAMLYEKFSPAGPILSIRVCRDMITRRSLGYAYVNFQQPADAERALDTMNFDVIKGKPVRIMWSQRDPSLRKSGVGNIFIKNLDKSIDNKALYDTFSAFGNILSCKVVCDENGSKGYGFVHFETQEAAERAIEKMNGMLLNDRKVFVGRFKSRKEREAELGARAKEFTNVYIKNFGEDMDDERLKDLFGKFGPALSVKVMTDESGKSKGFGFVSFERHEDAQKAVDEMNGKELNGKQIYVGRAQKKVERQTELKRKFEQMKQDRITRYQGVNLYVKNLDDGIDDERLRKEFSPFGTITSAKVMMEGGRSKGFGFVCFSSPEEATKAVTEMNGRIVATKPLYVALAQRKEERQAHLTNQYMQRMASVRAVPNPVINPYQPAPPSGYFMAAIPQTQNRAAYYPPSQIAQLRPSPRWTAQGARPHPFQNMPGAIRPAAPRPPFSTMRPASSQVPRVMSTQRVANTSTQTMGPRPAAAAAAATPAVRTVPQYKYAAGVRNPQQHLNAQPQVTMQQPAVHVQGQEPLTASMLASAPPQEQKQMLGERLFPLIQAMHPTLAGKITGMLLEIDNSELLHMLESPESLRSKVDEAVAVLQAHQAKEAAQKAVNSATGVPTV

| Binder | response (two independent experiments) | response (three independent experiments) |
| --- | --- | --- |
| FLAG-HA-SBP (FHS)-tagged full-length TNRC6A, wild type, Q8NDV7-2 S1332A; S1346A (protein) MDADSASSSESERNITIMASGNTGGEKDGLRNSTGLGSQNKFVVGSSSNNVGHGSSTGPWGFSHGAIISTCQVSVDAPESKSESSNNRMNAWGTVSSSSNGGLNPSTLNSASNHGAWPVLENNGLALKGPVGSGSSGINIQCSTIGQMPNNQSINSKVSGGSTHGTWGSLQETCESEVSGTQKVSFSGQPQNITTEMTGPNNTTNFMTSSLPNSGSVQNNELPSSNTGAWRVSTMNHPQMQAPSGMNGTSLSHLSNGESKSGGSYGTTWGAYGSNYSGDKCSGPNGQANGDTVNATLMQPGVNGPMGTNFQVNTNKGGGVWESGAANSQSTSWGSGNGANSGGSRRGWGTPAQNTGTNLPSVEWNKLPSNQHSNDSANGNGKTFTNGWKSTEEEDQGSATSQTNEQSSVWAKTGGTVESDGSTESTGRLEEKGTGESQSRDRRKIDQHTLLQSIVNRTDLDPRVLSNSGWGQTPIKQNTAWDTETSPRGERKTDNGTEAWGSSATQTFNSGACIDKTSPNGNDTSSVSGWGDPKPALRWGDSKGSNCQGGWEDDSAATGMVKSNQWGNCKEEKAAWNDSQKNKQGWGDGQKSSQGWSVSASDNWGETSRNNHWGEANKKSSSGGSDSDRSVSGWNELGKTSSFTWGNNINPNNSSGWDESSKPTPSQGWGDPPKSNQSLGWGDSSKPVSSPDWNKQQDIVGSWGIPPATGKPPGTGWLGGPIPAPAKEEEPTGWEEPSPESIRRKMEIDDGTSAWGDPSKYNYKNVNMWNKNVPNGNSRSDQQAQVHQLLTPASAISNKEASSGSGWGEPWGEPSTPATTVDNGTSAWGKPIDSGPSWGEPIAAASSTSTWGSSSVGPQALSKSGPKSMQDGWCGDDMPLPGNRPTGWEEEEDVEIGMWNSNSSQELNSSLNWPPYTKKMSSKGLSGKKRRRERGMMKGGNKQEEAWINPFVKQFSNISFSRDSPEENVQSNKMDLSGGMLQDKRMEIDKHSLNIGDYNRTVGKGPGSRPQISKESSMERNPYFDKDGIVADESQNMQFMSSQSMKLPPSNSALPNQALGSIAGLGMQNLNSVRQNGNPSMFGVGNTAAQPRGMQQPPAQPLSSSQPNLRAQVPPPLLSPQVPVSLLKYAPNNGGLNPLFGPQQVAMLNQLSQLNQLSQISQLQRLLAQQQRAQSQRSVPSGNRPQQDQQGRPLSVQQQMMQQSRQLDPNLLVKQQTPPSQQQPLHQPAMKSFLDNVMPHTTPELQKGPSPINAFSNFPIGLNSNLNVNMDMNSIKEPQSRLRKWTTVDSISVNTSLDQNSSKHGAISSGFRLEESPFVPYDFMNSSTSPAAPPGSIGDGWPRAKAPNGSSSVNWPPEFRPGEPWKGYPNIDPETDPYVTPGSVINNLSINTVREVDHLRDRNSGSSSSLNTTLPSTSAWSSIRASNYNVPLSSTAQSTSARNSDSKLTWSPGSVTNTSLAHELWKVPLPPKNITAPSRPPPGLTGQKPPLSTWDNSPLRIGGGWGNSDARYTPGSSWGESSSGRITNWLVLKNLTPQIDGSTLRTLCMQHGPLITFHLNLPHGNALVRYSSKEEVVKAQKSLHMCVLGNTTILAEFASEEEISRFFAQSQSLTPSPGWQSLGSSQSRLGSLDCSHSFSSRTDLNHWNGAGLSGTNCGDLHGTSLWGTPHYSTSLWGPPSSSDPRGISSPSPINAFLSVDHLGGGGESM | 1.7 |  |
| FLAG-HA-SBP (FHS)-tagged full-length TNRC6A, wild type, Q8NDV7-2 S1616D; S1691D (protein) MDADSASSSESERNITIMASGNTGGEKDGLRNSTGLGSQNKFVVGSSSNNVGHGSSTGPWGFSHGAIISTCQVSVDAPESKSESSNNRMNAWGTVSSSSNGGLNPSTLNSASNHGAWPVLENNGLALKGPVGSGSSGINIQCSTIGQMPNNQSINSKVSGGSTHGTWGSLQETCESEVSGTQKVSFSGQPQNITTEMTGPNNTTNFMTSSLPNSGSVQNNELPSSNTGAWRVSTMNHPQMQAPSGMNGTSLSHLSNGESKSGGSYGTTWGAYGSNYSGDKCSGPNGQANGDTVNATLMQPGVNGPMGTNFQVNTNKGGGVWESGAANSQSTSWGSGNGANSGGSRRGWGTPAQNTGTNLPSVEWNKLPSNQHSNDSANGNGKTFTNGWKSTEEEDQGSATSQTNEQSSVWAKTGGTVESDGSTESTGRLEEKGTGESQSRDRRKIDQHTLLQSIVNRTDLDPRVLSNSGWGQTPIKQNTAWDTETSPRGERKTDNGTEAWGSSATQTFNSGACIDKTSPNGNDTSSVSGWGDPKPALRWGDSKGSNCQGGWEDDSAATGMVKSNQWGNCKEEKAAWNDSQKNKQGWGDGQKSSQGWSVSASDNWGETSRNNHWGEANKKSSSGGSDSDRSVSGWNELGKTSSFTWGNNINPNNSSGWDESSKPTPSQGWGDPPKSNQSLGWGDSSKPVSSPDWNKQQDIVGSWGIPPATGKPPGTGWLGGPIPAPAKEEEPTGWEEPSPESIRRKMEIDDGTSAWGDPSKYNYKNVNMWNKNVPNGNSRSDQQAQVHQLLTPASAISNKEASSGSGWGEPWGEPSTPATTVDNGTSAWGKPIDSGPSWGEPIAAASSTSTWGSSSVGPQALSKSGPKSMQDGWCGDDMPLPGNRPTGWEEEEDVEIGMWNSNSSQELNSSLNWPPYTKKMSSKGLSGKKRRRERGMMKGGNKQEEAWINPFVKQFSNISFSRDSPEENVQSNKMDLSGGMLQDKRMEIDKHSLNIGDYNRTVGKGPGSRPQISKESSMERNPYFDKDGIVADESQNMQFMSSQSMKLPPSNSALPNQALGSIAGLGMQNLNSVRQNGNPSMFGVGNTAAQPRGMQQPPAQPLSSSQPNLRAQVPPPLLSPQVPVSLLKYAPNNGGLNPLFGPQQVAMLNQLSQLNQLSQISQLQRLLAQQQRAQSQRSVPSGNRPQQDQQGRPLSVQQQMMQQSRQLDPNLLVKQQTPPSQQQPLHQPAMKSFLDNVMPHTTPELQKGPSPINAFSNFPIGLNSNLNVNMDMNSIKEPQSRLRKWTTVDSISVNTSLDQNSSKHGAISSGFRLEESPFVPYDFMNSSTSPASPPGSIGDGWPRAKSPNGSSSVNWPPEFRPGEPWKGYPNIDPETDPYVTPGSVINNLSINTVREVDHLRDRNSGSSSSLNTTLPSTSAWSSIRASNYNVPLSSTAQSTSARNSDSKLTWSPGSVTNTSLAHELWKVPLPPKNITAPSRPPPGLTGQKPPLSTWDNSPLRIGGGWGNSDARYTPGSSWGESSSGRITNWLVLKNLTPQIDGSTLRTLCMQHGPLITFHLNLPHGNALVRYSSKEEVVKAQKSLHMCVLGNTTILAEFASEEEISRFFAQSQSLTPDPGWQSLGSSQSRLGSLDCSHSFSSRTDLNHWNGAGLSGTNCGDLHGTSLWGTPHYSTSLWGPPSSSDPRGISSPDPINAFLSVDHLGGGGESM | 0.89 |  |
| FLAG-HA-SBP (FHS)-tagged TNRC6A-SD-WT, Q8NDV7-2 S1332A; S1346A (protein) PLHQPAMKSFLDNVMPHTTPELQKGPSPINAFSNFPIGLNSNLNVNMDMNSIKEPQSRLRKWTTVDSISVNTSLDQNSSKHGAISSGFRLEESPFVPYDFMNSSTSPAAPPGSIGDGWPRAKAPNGSSSVNWPPEFRPGEPWKGYPNIDPETDPYVTPGSVINNLSINTVREVDHLRDRNSGSSSSLNTTLPSTSAWSSIRASNYNVPLSSTAQSTSARNSDSKLTWSPGSVTNTSLAHELWKVPLPPKNITAPSRPPPGLTGQKPPLSTWDNSPLRIGGGWGNSDARYTPGSSWGESSSGRITNWLVLKNLTPQIDGSTLRTLCMQHGPLITFHLNLPHGNALVRYSSKEEVVKAQKSLHMCVLGNTTILAEFASEEEISRFFAQSQSLTPSPGWQSLGSSQSRLGSLDCSHSFSSRTDLNHWNGAGLSGTNCGDLHGTSLWGTPHYSTSLWGPPSSSDPRGISSPSPINAFLSVDHLGGGGESM |  | 1.4 |
| FLAG-HA-SBP (FHS)-tagged TNRC6A-SD-WT, Q8NDV7-2 S1616D; S1691D (protein) PLHQPAMKSFLDNVMPHTTPELQKGPSPINAFSNFPIGLNSNLNVNMDMNSIKEPQSRLRKWTTVDSISVNTSLDQNSSKHGAISSGFRLEESPFVPYDFMNSSTSPASPPGSIGDGWPRAKSPNGSSSVNWPPEFRPGEPWKGYPNIDPETDPYVTPGSVINNLSINTVREVDHLRDRNSGSSSSLNTTLPSTSAWSSIRASNYNVPLSSTAQSTSARNSDSKLTWSPGSVTNTSLAHELWKVPLPPKNITAPSRPPPGLTGQKPPLSTWDNSPLRIGGGWGNSDARYTPGSSWGESSSGRITNWLVLKNLTPQIDGSTLRTLCMQHGPLITFHLNLPHGNALVRYSSKEEVVKAQKSLHMCVLGNTTILAEFASEEEISRFFAQSQSLTPDPGWQSLGSSQSRLGSLDCSHSFSSRTDLNHWNGAGLSGTNCGDLHGTSLWGTPHYSTSLWGPPSSSDPRGISSPDPINAFLSVDHLGGGGESM |  | 0.54 |
| FLAG-HA-SBP (FHS)-tagged TNRC6A-SD-WT, Q8NDV7-2 S1332D; S1346D (protein) PLHQPAMKSFLDNVMPHTTPELQKGPSPINAFSNFPIGLNSNLNVNMDMNSIKEPQSRLRKWTTVDSISVNTSLDQNSSKHGAISSGFRLEESPFVPYDFMNSSTSPADPPGSIGDGWPRAKDPNGSSSVNWPPEFRPGEPWKGYPNIDPETDPYVTPGSVINNLSINTVREVDHLRDRNSGSSSSLNTTLPSTSAWSSIRASNYNVPLSSTAQSTSARNSDSKLTWSPGSVTNTSLAHELWKVPLPPKNITAPSRPPPGLTGQKPPLSTWDNSPLRIGGGWGNSDARYTPGSSWGESSSGRITNWLVLKNLTPQIDGSTLRTLCMQHGPLITFHLNLPHGNALVRYSSKEEVVKAQKSLHMCVLGNTTILAEFASEEEISRFFAQSQSLTPSPGWQSLGSSQSRLGSLDCSHSFSSRTDLNHWNGAGLSGTNCGDLHGTSLWGTPHYSTSLWGPPSSSDPRGISSPSPINAFLSVDHLGGGGESM |  | 1.1 |
